# Laboratory results reported in PMC9482650, “Quantitative fragmentomics allow affinity mapping of interactomes” (Nature Communications, 2022).
# Residue numbers refer to the chain shown, from its start.
# T1: MPDZ_10, O75970
# T1 sequence (O75970 1624-1722, limits assumed, looked up): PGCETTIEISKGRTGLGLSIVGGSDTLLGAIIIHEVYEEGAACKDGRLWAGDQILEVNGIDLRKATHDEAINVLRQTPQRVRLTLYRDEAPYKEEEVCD
# T2: MPP7, Q5T2T1
# T2 sequence (Q5T2T1 134-230, limits assumed, looked up): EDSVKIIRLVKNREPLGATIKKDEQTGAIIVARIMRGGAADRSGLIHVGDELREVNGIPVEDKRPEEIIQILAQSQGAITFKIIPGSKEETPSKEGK
# T3: MPP2, Q14168
# T3 sequence (Q14168 180-250, limits assumed, looked up): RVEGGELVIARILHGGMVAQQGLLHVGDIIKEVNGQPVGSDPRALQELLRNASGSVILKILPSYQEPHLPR
# T4: SNTG2, Q9NY99
# T4 sequence (Q9NY99 68-166, limits assumed, looked up): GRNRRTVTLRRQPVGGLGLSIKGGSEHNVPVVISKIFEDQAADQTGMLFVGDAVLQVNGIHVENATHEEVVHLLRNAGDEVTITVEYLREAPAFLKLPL
# T5: GRIP1_7, Q9Y3R0
# T5 sequence (Q9Y3R0 999-1096, limits assumed, looked up): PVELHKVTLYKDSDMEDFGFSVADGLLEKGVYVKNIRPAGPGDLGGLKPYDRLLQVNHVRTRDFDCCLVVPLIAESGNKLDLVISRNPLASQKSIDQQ
# T6: ARHGAP21, Q5T5U3
# T6 sequence (Q5T5U3 45-169, limits assumed, looked up): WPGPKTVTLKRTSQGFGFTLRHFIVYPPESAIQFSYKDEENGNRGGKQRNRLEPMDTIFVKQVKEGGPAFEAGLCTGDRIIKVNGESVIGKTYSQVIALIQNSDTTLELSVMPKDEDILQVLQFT
# T7: APBA2_2, Q99767
# T7 sequence (Q99767 654-744, limits assumed, looked up): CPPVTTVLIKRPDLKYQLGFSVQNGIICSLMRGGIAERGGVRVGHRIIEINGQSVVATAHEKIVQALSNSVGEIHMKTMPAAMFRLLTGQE
# T8: HTRA4, P83105
# T8 sequence (P83105 378-476, limits assumed, looked up): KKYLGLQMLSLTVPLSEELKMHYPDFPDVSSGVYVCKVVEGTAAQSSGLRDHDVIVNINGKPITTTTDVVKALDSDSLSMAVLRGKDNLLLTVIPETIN
# T9: MPP6, Q9NZW5
# T9 sequence (Q9NZW5 125-219, limits assumed, looked up): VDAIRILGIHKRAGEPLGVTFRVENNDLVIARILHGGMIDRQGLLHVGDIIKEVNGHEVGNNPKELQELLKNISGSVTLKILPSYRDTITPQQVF
# T10: MPDZ_5, O75970
# T10 sequence (O75970 695-796, limits assumed, looked up): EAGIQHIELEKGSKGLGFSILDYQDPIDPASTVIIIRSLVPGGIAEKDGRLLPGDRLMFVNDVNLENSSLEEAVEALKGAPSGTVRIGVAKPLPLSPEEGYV
# T11: PCLO, Q9Y6V0
# T11 sequence (Q9Y6V0 4491-4600, limits assumed, looked up): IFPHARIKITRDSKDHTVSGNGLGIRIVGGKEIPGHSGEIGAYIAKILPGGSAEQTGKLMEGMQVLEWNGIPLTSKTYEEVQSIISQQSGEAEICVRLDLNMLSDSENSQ
# T12: APBA1_2, Q02410
# T12 sequence (Q02410 742-832, limits assumed, looked up): T7 sequence (Q99767 654-744, limits assumed, looked up) with K10R, K15R, A59P, Q65H, A66I, S70A, F84Y, G89A
# Assays:
# Experiment in all cases: holdup assay
# Design in all cases: key: below the threshold = too weak to quantify, mostly under pKd 3.1 to 4
# SCRIB_2, Q14160 = target: SCRIB_2, Q14160
# MPDZ_10, O75970 = target: T1, MPDZ_10, O75970
# MPP7, Q5T2T1 = target: T2, MPP7, Q5T2T1
# MPP2, Q14168 = target: T3, MPP2, Q14168
# MAGI2_3, Q86UL8 = target: MAGI2_3, Q86UL8
# SNTG2, Q9NY99 = target: T4, SNTG2, Q9NY99
# MAGI2_6, Q86UL8 = target: MAGI2_6, Q86UL8
# GRIP1_7, Q9Y3R0 = target: T5, GRIP1_7, Q9Y3R0
# MAGI3_2, Q5TCQ9 = target: MAGI3_2, Q5TCQ9
# ARHGAP21, Q5T5U3 = target: T6, ARHGAP21, Q5T5U3
# DLG1_1, Q12959 = target: DLG1_1, Q12959
# APBA2_2, Q99767 = target: T7, APBA2_2, Q99767
# NHERF4_2, Q86UT5 = target: NHERF4_2, Q86UT5
# GRIP2_5, Q9C0E4 = target: GRIP2_5, Q9C0E4
# HTRA4, P83105 = target: T8, HTRA4, P83105
# MPP6, Q9NZW5 = target: T9, MPP6, Q9NZW5
# LNX1_1, Q8TBB1 = target: LNX1_1, Q8TBB1
# MPDZ_5, O75970 = target: T10, MPDZ_5, O75970
# IL16_1, Q14005 = target: IL16_1, Q14005
# GRIP2_4, Q9C0E4 = target: GRIP2_4, Q9C0E4
# PCLO, Q9Y6V0 = target: T11, PCLO, Q9Y6V0
# APBA1_2, Q02410 = target: T12, APBA1_2, Q02410
# GRIP2_3, Q9C0E4 = target: GRIP2_3, Q9C0E4
# LAP2, Q96RT1 = target: LAP2, Q96RT1
# NHERF2_2, Q15599 = target: NHERF2_2, Q15599
# DLG1_3, Q12959 = target: DLG1_3, Q12959
# [1] = plain residues with an end cap or a label only (N-terminal biotin on a linker: ado-ado)
# [2] = plain residues with an end cap or a label only (N-terminal biotin on a linker: (peg)3)
# NHERF4_2, Q86UT5, sequence (Q86UT5 220-308): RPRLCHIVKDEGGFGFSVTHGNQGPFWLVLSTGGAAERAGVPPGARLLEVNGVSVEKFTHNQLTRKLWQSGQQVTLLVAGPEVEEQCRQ
# LAP2, Q96RT1, sequence (Q96RT1 other isoform, or with tags, fused parts or gaps): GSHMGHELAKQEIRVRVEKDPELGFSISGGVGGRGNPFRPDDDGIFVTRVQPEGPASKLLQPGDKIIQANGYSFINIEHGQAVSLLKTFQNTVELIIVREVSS
# GRIP2_5, Q9C0E4, sequence (Q9C0E4 544-642): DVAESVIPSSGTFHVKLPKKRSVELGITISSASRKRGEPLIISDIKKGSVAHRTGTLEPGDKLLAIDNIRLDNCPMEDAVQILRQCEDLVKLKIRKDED
# LNX1_1, Q8TBB1, sequence (Q8TBB1 261-371): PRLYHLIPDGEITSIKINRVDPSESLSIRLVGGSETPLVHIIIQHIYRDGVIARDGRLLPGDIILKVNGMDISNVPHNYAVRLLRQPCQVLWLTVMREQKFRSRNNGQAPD
# MAGI2_3, Q86UL8, sequence (Q86UL8 600-682): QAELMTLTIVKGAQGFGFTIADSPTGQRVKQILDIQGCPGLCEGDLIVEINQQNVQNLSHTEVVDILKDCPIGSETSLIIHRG
# MAGI3_2, Q5TCQ9, sequence (Q5TCQ9 398-503): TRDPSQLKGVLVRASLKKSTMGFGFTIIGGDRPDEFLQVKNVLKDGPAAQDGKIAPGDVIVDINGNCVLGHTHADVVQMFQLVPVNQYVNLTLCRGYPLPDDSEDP
# SCRIB_2, Q14160, sequence (Q14160 857-960): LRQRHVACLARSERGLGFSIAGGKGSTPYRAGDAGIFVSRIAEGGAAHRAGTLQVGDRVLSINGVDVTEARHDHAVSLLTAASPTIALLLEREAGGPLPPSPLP
# NHERF2_2, Q15599, sequence (Q15599 142-238): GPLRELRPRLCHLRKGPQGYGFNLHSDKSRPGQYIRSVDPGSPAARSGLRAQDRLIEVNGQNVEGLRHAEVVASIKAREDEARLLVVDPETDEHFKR
# GRIP2_4, Q9C0E4, sequence (Q9C0E4 446-548): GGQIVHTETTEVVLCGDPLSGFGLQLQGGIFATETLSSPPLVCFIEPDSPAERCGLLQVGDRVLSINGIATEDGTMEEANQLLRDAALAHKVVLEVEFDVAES
# GRIP2_3, Q9C0E4, sequence (Q9C0E4 238-339): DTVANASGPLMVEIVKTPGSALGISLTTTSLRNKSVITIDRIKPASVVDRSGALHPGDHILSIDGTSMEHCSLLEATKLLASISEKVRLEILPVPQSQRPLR
# IL16_1, Q14005, sequence (Q14005 210-306): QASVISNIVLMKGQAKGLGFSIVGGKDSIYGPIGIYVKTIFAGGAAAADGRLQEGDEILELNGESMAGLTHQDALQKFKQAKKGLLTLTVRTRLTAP
# MAGI2_6, Q86UL8, sequence (Q86UL8 1141-1229): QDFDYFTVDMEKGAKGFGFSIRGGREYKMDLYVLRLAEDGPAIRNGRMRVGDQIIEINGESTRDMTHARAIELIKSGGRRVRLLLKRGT
binder,measurement,setting,value
"GQETPLNTFC [MAP7D2, Q96T17]",pKd,"SCRIB_2, Q14160; [1]",below the threshold
same,pKd,"MPDZ_10, O75970; [1]",below the threshold
same,pKd,"MPP7, Q5T2T1; [1]",below the threshold
same,pKd,"MPP2, Q14168; [1]",below the threshold
same,pKd,"MAGI2_3, Q86UL8; [1]",below the threshold
same,pKd,"SNTG2, Q9NY99; [1]",3.7
same,pKd,"MAGI2_6, Q86UL8; [1]",below the threshold
same,pKd,"GRIP1_7, Q9Y3R0; [1]",below the threshold
same,pKd,"MAGI3_2, Q5TCQ9; [1]",below the threshold
same,pKd,"ARHGAP21, Q5T5U3; [1]",below the threshold
same,pKd,"DLG1_1, Q12959; [1]",below the threshold
same,pKd,"APBA2_2, Q99767; [1]",below the threshold
same,pKd,"NHERF4_2, Q86UT5; [1]",below the threshold
same,pKd,"GRIP2_5, Q9C0E4; [1]",below the threshold
same,pKd,"HTRA4, P83105; [1]",below the threshold
same,pKd,"MPP6, Q9NZW5; [1]",3.62
same,pKd,"LNX1_1, Q8TBB1; [1]",below the threshold
same,pKd,"MPDZ_5, O75970; [1]",below the threshold
same,pKd,"IL16_1, Q14005; [1]",below the threshold
same,pKd,"GRIP2_4, Q9C0E4; [1]",below the threshold
same,pKd,"PCLO, Q9Y6V0; [1]",below the threshold
same,pKd,"APBA1_2, Q02410; [1]",below the threshold
same,pKd,"GRIP2_3, Q9C0E4; [1]",below the threshold
same,pKd,"LAP2, Q96RT1; [1]",below the threshold
same,pKd,"NHERF2_2, Q15599; [1]",3.94
same,pKd,"DLG1_3, Q12959; [1]",below the threshold
"RPGFASESKV [ADRB1, P08588]",pKd,"SCRIB_2, Q14160; [1]",4.04
same,pKd,"MPDZ_10, O75970; [1]",below the threshold
same,pKd,"MPP7, Q5T2T1; [1]",below the threshold
same,pKd,"MPP2, Q14168; [1]",below the threshold
same,pKd,"MAGI2_3, Q86UL8; [1]",below the threshold
same,pKd,"SNTG2, Q9NY99; [1]",4.35
same,pKd,"MAGI2_6, Q86UL8; [1]",below the threshold
same,pKd,"GRIP1_7, Q9Y3R0; [1]",below the threshold
same,pKd,"MAGI3_2, Q5TCQ9; [1]",5.13
same,pKd,"ARHGAP21, Q5T5U3; [1]",3.98
same,pKd,"DLG1_1, Q12959; [1]",3.71
same,pKd,"APBA2_2, Q99767; [1]",below the threshold
same,pKd,"NHERF4_2, Q86UT5; [1]",below the threshold
same,pKd,"GRIP2_5, Q9C0E4; [1]",below the threshold
same,pKd,"HTRA4, P83105; [1]",below the threshold
same,pKd,"MPP6, Q9NZW5; [1]",below the threshold
same,pKd,"LNX1_1, Q8TBB1; [1]",3.7
same,pKd,"MPDZ_5, O75970; [1]",below the threshold
same,pKd,"IL16_1, Q14005; [1]",4.36
same,pKd,"GRIP2_4, Q9C0E4; [1]",below the threshold
same,pKd,"PCLO, Q9Y6V0; [1]",below the threshold
same,pKd,"APBA1_2, Q02410; [1]",3.82
same,pKd,"GRIP2_3, Q9C0E4; [1]",below the threshold
same,pKd,"LAP2, Q96RT1; [1]",3.95
same,pKd,"NHERF2_2, Q15599; [1]",below the threshold
same,pKd,"DLG1_3, Q12959; [1]",below the threshold
"YDEPTTTTSVPL [SARS-Cov2-3a, P0DTC3]",pKd,"SCRIB_2, Q14160; [2]",below the threshold
same,pKd,"MPDZ_10, O75970; [2]",below the threshold
same,pKd,"MPP7, Q5T2T1; [2]",below the threshold
same,pKd,"MPP2, Q14168; [2]",below the threshold
same,pKd,"MAGI2_3, Q86UL8; [2]",below the threshold
same,pKd,"SNTG2, Q9NY99; [2]",below the threshold
same,pKd,"MAGI2_6, Q86UL8; [2]",below the threshold
same,pKd,"GRIP1_7, Q9Y3R0; [2]",below the threshold
same,pKd,"MAGI3_2, Q5TCQ9; [2]",below the threshold
same,pKd,"ARHGAP21, Q5T5U3; [2]",3.75
same,pKd,"DLG1_1, Q12959; [2]",below the threshold
same,pKd,"APBA2_2, Q99767; [2]",below the threshold
same,pKd,"NHERF4_2, Q86UT5; [2]",below the threshold
same,pKd,"GRIP2_5, Q9C0E4; [2]",below the threshold
same,pKd,"HTRA4, P83105; [2]",below the threshold
same,pKd,"MPP6, Q9NZW5; [2]",below the threshold
same,pKd,"LNX1_1, Q8TBB1; [2]",below the threshold
same,pKd,"MPDZ_5, O75970; [2]",below the threshold
same,pKd,"IL16_1, Q14005; [2]",below the threshold
same,pKd,"GRIP2_4, Q9C0E4; [2]",below the threshold
same,pKd,"PCLO, Q9Y6V0; [2]",below the threshold
same,pKd,"APBA1_2, Q02410; [2]",below the threshold
same,pKd,"GRIP2_3, Q9C0E4; [2]",below the threshold
same,pKd,"LAP2, Q96RT1; [2]",below the threshold
same,pKd,"NHERF2_2, Q15599; [2]",below the threshold
same,pKd,"DLG1_3, Q12959; [2]",below the threshold
"RTQSSDSAYV [GJD2, Q9UKL4]",pKd,"SCRIB_2, Q14160; [1]",below the threshold
same,pKd,"MPDZ_10, O75970; [1]",below the threshold
same,pKd,"MPP7, Q5T2T1; [1]",below the threshold
same,pKd,"MPP2, Q14168; [1]",below the threshold
same,pKd,"MAGI2_3, Q86UL8; [1]",below the threshold
same,pKd,"SNTG2, Q9NY99; [1]",below the threshold
same,pKd,"MAGI2_6, Q86UL8; [1]",3.58
same,pKd,"GRIP1_7, Q9Y3R0; [1]",below the threshold
same,pKd,"MAGI3_2, Q5TCQ9; [1]",below the threshold
same,pKd,"ARHGAP21, Q5T5U3; [1]",3.62
same,pKd,"DLG1_1, Q12959; [1]",below the threshold
same,pKd,"APBA2_2, Q99767; [1]",below the threshold
same,pKd,"NHERF4_2, Q86UT5; [1]",below the threshold
same,pKd,"GRIP2_5, Q9C0E4; [1]",below the threshold
same,pKd,"HTRA4, P83105; [1]",below the threshold
same,pKd,"MPP6, Q9NZW5; [1]",below the threshold
same,pKd,"LNX1_1, Q8TBB1; [1]",3.9
same,pKd,"MPDZ_5, O75970; [1]",below the threshold
same,pKd,"IL16_1, Q14005; [1]",below the threshold
same,pKd,"GRIP2_4, Q9C0E4; [1]",below the threshold
same,pKd,"PCLO, Q9Y6V0; [1]",below the threshold
same,pKd,"APBA1_2, Q02410; [1]",4.09
same,pKd,"GRIP2_3, Q9C0E4; [1]",below the threshold
same,pKd,"LAP2, Q96RT1; [1]",below the threshold
same,pKd,"NHERF2_2, Q15599; [1]",3.49
same,pKd,"DLG1_3, Q12959; [1]",below the threshold
